Target: the molecule itself
Test: crystal structure; apo-LiDps crystals (hanging drop, 100 mM HEPES pH 7.5, 12.5-20.0% PEG 1500, 21 °C) soaked 30 or 120 min in 10 mM YbCl3; space group P41212 with six monomers in the asymmetric unit; data at 100 K

B1: Listeria innocua Dps (DNA binding protein from starved cells) (natural protein)
chain: MKTINSVDTKEFLNHQVANLNVFTVKIHQIHWYMRGHNFFTLHEKMDDLYSEFGEQMDEVAERLLAIGGSPFSTLKEFLENASVEEAPYTKPKTMDQLMEDLVGTLELLRDEYKQGIELTDKEGDDVTNDMLIAFKASIDKHIWMFKAFLGKAPLE
notes: Dps (ferritin-like protein) of Listeria innocua; Homo-dodecameric cage; Crystals in space group P41212 have six monomers in the asymmetric unit; Crystals were soaked with 10 mM YbCl3 for 30 or 120 min; PDB 1QGH was the search model for molecular replacement; also called LiDps; Apo-Dps; copies: 12
- stoichiometry N: 12

Source: publication PMC8389677, “Time-Resolved Studies of Ytterbium Distribution at Interfacial Surfaces of Ferritin-like Dps Protein Demonstrate Metal Uptake and Storage Pathways” (Biomedicines, 2021)
